The values below come from patent US20220025021A1 (BETH ISRAEL DEACONESS MEDICAL CENTER, published 2022).

Test in all cases: cell-based or functional assay
One experiment concerns the target HIV-1 pseudovirus 263-8 (HIV-1).
For experiment [1], the target named is HIV-1 pseudovirus SC05.8C11.2344 (HIV-1).
Experiment [2] has as its target HIV-1 pseudovirus X1193_c1 (HIV-1).
Experiment [3] has as its target HIV-1 pseudovirus Ce1176_A3 (HIV-1).
In experiment [4] the target is HIV-1 pseudovirus AC10.0.29 (HIV-1).
The target in experiment [5] is HIV-1 pseudovirus 6952.v1.c20 (HIV-1).

Positions count from the first letter of the chain named.

B1: MS-68 (antibody)
VH: not shown
VL: DFVLTQSPHSLPVTPGESASISCKSSHSLIHGDRNNYLAWYVQKPGRSPQLLIYLASSRASGVPDRFSGSGSDKDFTLKISRVETEDVGTYYCMQGRESPWTFGQGTKVDIKRTVAAPSVFIFPPSDEQLKSGTASVVCLLNNFYPREAKVQWKVDNALQSGNSQESVTEQDSKDSTYSLSSTLTLSKADYEKHKVYACEVTHQGLSSPVTKSFNRGEC
Turning to B1, the “IC50 (neutralization in TZM.bl cells)” value in the experiment with HIV-1 pseudovirus 263-8 stood at 0.011 µg/mL; in experiment [1], 0.708 µg/mL; in experiment [2] it was 0.1 µg/mL; in experiment [3], 0.096 µg/mL; in experiment [4], 0.04 µg/mL; in experiment [5] it was 0.206 µg/mL. In addition, the “IC80 (neutralization in TZM.bl cells)” value in the experiment with HIV-1 pseudovirus 263-8 was found to be 0.038 µg/mL; in experiment [1], 1.95 µg/mL; in experiment [2], 0.287 µg/mL; in experiment [3], 1.64 µg/mL; in experiment [4] it was 0.169 µg/mL; in experiment [5], 12.9 µg/mL.

B2: MS-73 (antibody)
VH: not shown
VL: B1 VL with P12S, T85A
As for B2, the “IC50 (neutralization in TZM.bl cells)” value with HIV-1 pseudovirus 263-8 turned out to be 0.01 µg/mL; in experiment [1], 0.461 µg/mL; in experiment [2], 0.085 µg/mL; in experiment [3] it was 0.035 µg/mL; in experiment [4] it was 0.041 µg/mL; in experiment [5], 0.222 µg/mL. For the same molecule, the “IC80 (neutralization in TZM.bl cells)” value with HIV-1 pseudovirus 263-8 came to 0.032 µg/mL; in experiment [1] it was 1.62 µg/mL; in experiment [2] it was 0.327 µg/mL; in experiment [3], 0.581 µg/mL; in experiment [4], 0.206 µg/mL; in experiment [5], 6.99 µg/mL.

B3: MS-69 (antibody)
VH: not shown
VL: B1 VL with P12S, S18P
Turning to B3, the “IC50 (neutralization in TZM.bl cells)” value in the experiment with HIV-1 pseudovirus 263-8 came out at 0.01 µg/mL; in experiment [1] it was 0.456 µg/mL; in experiment [2], 0.072 µg/mL; in experiment [3] it was 0.087 µg/mL; in experiment [4], 0.029 µg/mL; in experiment [5], 0.182 µg/mL. Besides, the “IC80 (neutralization in TZM.bl cells)” value with HIV-1 pseudovirus 263-8 turned out to be 0.046 µg/mL; in experiment [1], 1.69 µg/mL; in experiment [2] it was 0.326 µg/mL; in experiment [3], 1.71 µg/mL; in experiment [4] it was 0.169 µg/mL; in experiment [5], 3.06 µg/mL.

B4: MS-71 (antibody)
VH: not shown
VL: B1 VL with P12S, D73G
As for B4, the “IC50 (neutralization in TZM.bl cells)” value came to 0.014 µg/mL with HIV-1 pseudovirus 263-8; 0.425 µg/mL in experiment [1]; 0.072 µg/mL in experiment [2]; 0.04 µg/mL in experiment [3]; 0.035 µg/mL in experiment [4]; 0.325 µg/mL in experiment [5]. The “IC80 (neutralization in TZM.bl cells)” value with HIV-1 pseudovirus 263-8 worked out at 0.041 µg/mL; in experiment [1], 1.41 µg/mL; in experiment [2], 0.265 µg/mL; in experiment [3], 0.796 µg/mL; in experiment [4], 0.177 µg/mL; in experiment [5], 7.92 µg/mL.

B5: MS-70 (antibody, V domains shown)
VH: QVQLVQSGPEVRKPGTSVKVSCKAPGNTLKTYDLHWVRSVPGQGLQWMGWISHEGDKKVIVERFKAKVTIDWDRSTNTAYLQLSGLTSGDTAVYYCAKGSKHRLRDYALYDDDGALNWAVDVDYLSNLEFWGQGTAVTVSS
VL: DFVLTQSPHSLSVTPGESASISCKSSHSLIHGDRNNYLAWYVQKPGQSPQLLIYLASSRASGVPDRFSGSGSDKDFTLKISRVETEDVGTYYCMQGRESPWTFGQGTKVDIKR
Turning to B5, the “IC50 (neutralization in TZM.bl cells)” value was determined as 0.016 µg/mL in the experiment with HIV-1 pseudovirus 263-8; 0.508 µg/mL in experiment [1]; 0.111 µg/mL in experiment [2]; 0.06 µg/mL in experiment [3]; 0.053 µg/mL in experiment [4]; 0.285 µg/mL in experiment [5]. Further, the “IC80 (neutralization in TZM.bl cells)” value came to 0.047 µg/mL with HIV-1 pseudovirus 263-8; 1.36 µg/mL in experiment [1]; 0.413 µg/mL in experiment [2]; 0.968 µg/mL in experiment [3]; 0.206 µg/mL in experiment [4]; 4.84 µg/mL in experiment [5].

B6: MS-76 (antibody, V domains shown)
VH: B5 VH with N27Y
VL: B5 VL with Q47R
For the molecule B6, the “IC50 (neutralization in TZM.bl cells)” value was determined as 0.015 µg/mL with HIV-1 pseudovirus 263-8; 0.587 µg/mL in experiment [1]; 0.126 µg/mL in experiment [2]; 0.082 µg/mL in experiment [3]; 0.047 µg/mL in experiment [4]; 0.844 µg/mL in experiment [5]. In addition, the “IC80 (neutralization in TZM.bl cells)” value with HIV-1 pseudovirus 263-8 was 0.053 µg/mL; in experiment [1], 2.57 µg/mL; in experiment [2], 0.575 µg/mL; in experiment [3], 1.63 µg/mL; in experiment [4], 0.368 µg/mL; in experiment [5], above 25 µg/mL.

B7: MS-72 (antibody, V domains shown)
VH: B5 VH
VL: B5 VL with Q47R, K74T
Consider B7, for which the “IC50 (neutralization in TZM.bl cells)” value with HIV-1 pseudovirus 263-8 worked out at 0.02 µg/mL; in experiment [1] it was 0.791 µg/mL; in experiment [2], 0.072 µg/mL; in experiment [3], 0.074 µg/mL; in experiment [4] it was 0.051 µg/mL; in experiment [5], 0.643 µg/mL. The “IC80 (neutralization in TZM.bl cells)” value with HIV-1 pseudovirus 263-8 came out at 0.057 µg/mL; in experiment [1], 2.85 µg/mL; in experiment [2], 0.258 µg/mL; in experiment [3] it was 1.3 µg/mL; in experiment [4] it was 0.255 µg/mL; in experiment [5] it was 12.4 µg/mL.

B8: MS-75 (antibody, V domains shown)
VH: B5 VH with P25S
VL: B5 VL with Q47R
With B8, the “IC50 (neutralization in TZM.bl cells)” value in the experiment with HIV-1 pseudovirus 263-8 is 0.018 µg/mL; in experiment [1], 0.792 µg/mL; in experiment [2], 0.174 µg/mL; in experiment [3], 0.139 µg/mL; in experiment [4] it was 0.055 µg/mL; in experiment [5], 0.977 µg/mL. Also, the “IC80 (neutralization in TZM.bl cells)” value is 0.086 µg/mL with HIV-1 pseudovirus 263-8; 3.72 µg/mL in experiment [1]; 0.591 µg/mL in experiment [2]; 2.79 µg/mL in experiment [3]; 0.442 µg/mL in experiment [4]; above 25 µg/mL in experiment [5].

B9: MS-77 (antibody, V domains shown)
VH: B5 VH with L29F
VL: B5 VL with Q47R
For the molecule B9, the “IC50 (neutralization in TZM.bl cells)” value with HIV-1 pseudovirus 263-8 came to 0.012 µg/mL; in experiment [1], 0.516 µg/mL; in experiment [2], 0.109 µg/mL; in experiment [3] it was 0.067 µg/mL; in experiment [4], 0.036 µg/mL; in experiment [5] it was 0.236 µg/mL. For the same molecule, the “IC80 (neutralization in TZM.bl cells)” value in the experiment with HIV-1 pseudovirus 263-8 is 0.033 µg/mL; in experiment [1] it was 2.41 µg/mL; in experiment [2], 0.398 µg/mL; in experiment [3] it was 1.12 µg/mL; in experiment [4] it was 0.311 µg/mL; in experiment [5], 6.74 µg/mL.

B10: MS-74 (antibody, V domains shown)
VH: B5 VH
VL: B5 VL with Q47R, T90V
For the molecule B10, the “IC50 (neutralization in TZM.bl cells)” value is 0.013 µg/mL with HIV-1 pseudovirus 263-8; 0.415 µg/mL in experiment [1]; 0.086 µg/mL in experiment [2]; 0.028 µg/mL in experiment [3]; 0.041 µg/mL in experiment [4]; 0.285 µg/mL in experiment [5]. The “IC80 (neutralization in TZM.bl cells)” value worked out at 0.037 µg/mL with HIV-1 pseudovirus 263-8; 1.94 µg/mL in experiment [1]; 0.296 µg/mL in experiment [2]; 0.564 µg/mL in experiment [3]; 0.216 µg/mL in experiment [4]; 15.1 µg/mL in experiment [5].
